# Experimental data reported in patent US20140170162A1, “PRESERVATION OF THE NEUROMUSCULAR JUNCTION (NMJ) AFTER TRAUMATIC NERVE INJURY” (The Regents of the University of California, priority 2012, published 2014).
# How the values were obtained:
# [1] = target: His-labeled rat recombinant agrin (R&D Systems) (UniProt P25304)
# C212 myotubes = assay: In vitro assessment of AChR clustering in myotubes; type: cell-based; details: FIG. 3A, B
# Description: C212 cells were purchased from ATCC (Manassas, Va.). Cells were expanded and differentiated into myotubes as previously described. Five days following differentiation, myotubes were then treated overnight with […] His-labeled rat recombinant agrin (R&D Systems, Minneapolis, Minn.) or […] rat recombinant agrin incubated with […] MMP3 active subunit (Millipore, Billerica, Mass.) for 72 hours. Western blot was performed to confirm cleavage of agrin. After treatment of myotubes with Alexa 555-conjugated a-bungarotoxin (a-BTX; Invitrogen, Carlsbad, Calif.; 1:1,000), samples were fixed according to standard procedures for immunohistochemistry. Ten random fields at 40 magnification were evaluated by a blinded observer for AChR clustering under fluorescent microscopy as previously described. An AChR cluster was defined as an aggregate of at least 4 lm2. Three samples from each treatment group were analyzed.
# Agrin was cleaved by MMP3, resulting in a 60 kDa fragment as detected by silver stain.
# UniProt P25304, sequence (P25304 1153-1959): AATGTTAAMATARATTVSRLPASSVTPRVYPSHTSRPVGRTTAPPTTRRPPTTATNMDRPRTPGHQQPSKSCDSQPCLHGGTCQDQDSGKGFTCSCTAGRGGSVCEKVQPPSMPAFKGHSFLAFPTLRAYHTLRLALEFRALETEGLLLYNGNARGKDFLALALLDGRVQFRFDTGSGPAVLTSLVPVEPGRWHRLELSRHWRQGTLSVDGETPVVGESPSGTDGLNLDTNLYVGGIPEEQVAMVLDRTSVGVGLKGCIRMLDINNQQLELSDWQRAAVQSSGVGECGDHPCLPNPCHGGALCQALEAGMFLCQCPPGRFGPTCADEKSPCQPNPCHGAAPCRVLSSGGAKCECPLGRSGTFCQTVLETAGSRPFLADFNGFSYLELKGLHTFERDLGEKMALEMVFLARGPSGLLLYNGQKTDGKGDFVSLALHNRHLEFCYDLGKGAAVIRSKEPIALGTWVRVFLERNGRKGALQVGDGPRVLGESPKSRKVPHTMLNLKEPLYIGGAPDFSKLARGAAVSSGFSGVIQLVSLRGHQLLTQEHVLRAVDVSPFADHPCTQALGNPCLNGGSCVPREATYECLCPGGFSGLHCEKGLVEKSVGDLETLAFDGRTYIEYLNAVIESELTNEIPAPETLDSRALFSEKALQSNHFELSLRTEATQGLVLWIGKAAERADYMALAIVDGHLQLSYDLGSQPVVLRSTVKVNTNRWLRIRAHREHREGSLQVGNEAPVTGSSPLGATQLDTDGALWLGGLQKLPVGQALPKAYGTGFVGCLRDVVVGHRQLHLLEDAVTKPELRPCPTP
Substance,"AChR clusters/field in C212 myotubes (agrin processed by MMP3, against 7.30 for agrin alone) [1]",cleavage of agrin (silver stain) [1],degradation of 90 kDa agrin after 72 hours [1],AChR clustering (images) (C212 myotubes)
MMP3 active subunit (Millipore),7.30 6 0.578 clusters/field vs 2.20 6 0.467 clusters/field,"Agrin was cleaved by MMP3, resulting in a 60 kDa fragment as detected by silver stain",Treatment with MMP3 for 72 hours led to complete degradation of 90 kDa agrin,–
"agrin: His-labeled rat recombinant agrin (R&D Systems), approximately 90 kDa",–,–,–,clustering
